Consider two substances from patent US20090221474A1.

For assay [1], the target named is bovine HD1 (bovine thymus trapoxin binding proteins p46-p49) (bovine) (UniProt Q32PJ8). The experiment in a line: depletion of bovine thymus Mono Q fractions by the K-trap affinity matrix.
The target is the same in assay [2]. The experiment in a line: cell-based or functional assay.

Chain of bovine HD1 (bovine thymus trapoxin binding proteins p46-p49) (bovine) (Q32PJ8 whole entry): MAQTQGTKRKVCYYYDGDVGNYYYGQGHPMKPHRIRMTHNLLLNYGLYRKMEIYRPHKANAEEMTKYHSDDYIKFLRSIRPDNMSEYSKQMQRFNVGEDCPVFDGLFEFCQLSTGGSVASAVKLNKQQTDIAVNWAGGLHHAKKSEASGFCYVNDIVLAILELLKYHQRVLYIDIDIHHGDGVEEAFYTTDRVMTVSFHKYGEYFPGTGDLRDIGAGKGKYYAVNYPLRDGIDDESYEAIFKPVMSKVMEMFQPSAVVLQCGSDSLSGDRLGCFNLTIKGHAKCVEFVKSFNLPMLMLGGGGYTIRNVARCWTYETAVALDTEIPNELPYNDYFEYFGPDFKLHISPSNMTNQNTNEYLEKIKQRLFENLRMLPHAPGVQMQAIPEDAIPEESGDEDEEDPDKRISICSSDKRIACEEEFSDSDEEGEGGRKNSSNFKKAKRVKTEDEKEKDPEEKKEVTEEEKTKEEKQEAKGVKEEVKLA

In assay [1], K-trap affinity matrix (peptide) showed a percent of trapoxin binding and histone deacetylase activity depleted of 90%.

Substance trapoxin (peptide) displayed an inhibition of histone deacetylase activity in assay [2] of 20 nM.
